Experimental data as given in patent publication US20210292396A1.

Tests used:
Assay in all cases: cell-based or functional assay
[1] = target: HIV Env of isolate A07412M1.vrc12 (HIV)
[2] = target: Env of HIV isolate 426c (clade C) (HIV)
[3] = target: HIV Env of isolate ZM233.6 (HIV)
[4] = target: HIV Env of isolate ZM215.8 (HIV)
[5] = target: Env of HIV isolate 0077.v1.c16 (clade C) (HIV)
[6] = target: Env of HIV isolate 00836-2.5 (clade C) (HIV)
[7] = target: HIV Env of isolate 3326.v4.c3 (HIV)
[8] = target: HIV Env of isolate 191821.E6.1 (HIV)
[9] = target: HIV Env of isolate 231965.c01 (HIV)
[10] = target: Env of HIV isolate SF162.LS (clade B) (HIV)
[11] = target: Env of HIV isolate KNH1209.18 (clade A) (HIV)
[12] = target: Env of HIV isolate 3468.v1.c12 (clade AD) (HIV)
[13] = target: Env of HIV isolate 3365.v2.c20 (clade A) (HIV)
[14] = target: Env of HIV isolate CNE14 (clade B) (HIV)
[15] = target: Env of HIV isolate YU2.DG (clade B) (HIV)
[16] = target: Env of HIV isolate ADA.DG (clade B) (HIV)
[17] = target: Env of HIV isolate JRFL.JB (clade B) (HIV)
[18] = target: Env of HIV isolate Q769.h5 (clade A) (HIV)
[19] = target: Env of HIV isolate TRJO.58 (clade B) (HIV)
[20] = target: Env of HIV isolate C4118.09 (clade AE) (HIV)
[21] = target: Env of HIV isolate 928-28 (clade AG) (HIV)
[22] = target: Env of HIV isolate BJOX009000.02.4 (clade AE) (HIV)
[23] = target: Env of HIV isolate Q259.17 (clade A) (HIV)
[24] = target: HIV Env of isolate 6471.v1.c16 (HIV)
[25] = target: Env of HIV isolate 242-14 (clade AG) (HIV)
[26] = target: Env of HIV isolate DJ263.8 (clade AG) (HIV)
[27] = target: HIV Env of isolate 6785.v5.c14 (HIV)
[28] = target: Env of HIV isolate 3589.v1.c4 (clade AC) (HIV)
[29] = target: HIV Env of isolate ZM106.9 (HIV)
[30] = target: Env of HIV isolate Q168.a2 (clade AD) (HIV)
[31] = target: Env of HIV isolate 26191-2.48 (clade C) (HIV)
[32] = target: HIV Env of isolate UG021.16 (HIV)
[33] = target: HIV Env of isolate TZBD.02 (HIV)
[34] = target: Env of HIV isolate M02138 (clade AE) (HIV)
[35] = target: Env of HIV isolate Q23.17 (clade A) (HIV)
[36] = target: Env of HIV isolate CNE15 (clade BC) (HIV)
[37] = target: Env of HIV isolate 6644.v2.c33 (clade C) (HIV)
[38] = target: HIV Env of isolate X1254.c3 (HIV)
[39] = target: HIV Env of isolate ZM249.1 (HIV)
[40] = target: Env of HIV isolate 3337.v2.c6 (clade CD) (HIV)
[41] = target: HIV Env of isolate X2088.c9 (HIV)
[42] = target: Envelope protein of SIVmac251.30.SG3 (clade NA)
[43] = target: Env of HIV isolate DU422.01 (clade C) (HIV)
[44] = target: HIV Env of isolate CH117.4 (HIV)
[45] = target: HIV Env of isolate CAP256.206.C9 (HIV)
[46] = target: Env of HIV isolate CNE58 (clade C in Table 7) (HIV)
[47] = target: Env of HIV isolate 263-8 (clade AG) (HIV)
[48] = target: HIV Env of isolate 6322.v4.c1 (HIV)
[49] = target: Env of HIV isolate 6101.10 (clade B) (HIV)
[50] = target: Env of HIV isolate CNE10 (clade B) (HIV)

B1: ePGT121.15 (ePGT121.15.H6 VH and ePGT121.15.L1 VL) (antibody, V domains shown)
VH: QMQLQESGPGLVKPGETLSLTCSVSGASISSSYWSWLRETPGKGLEWIGYTHHSGDTNYAPSLKSRVHLGLHPSKNQVSLSLTSVTAADTAVYYCARTLHGRRIYGVVAFNEFFTYFYWEVWGKGTQVTVSS
VL: SDISVAPGETVRISCGGESIGSRAVQWYQHRAGQAPKLIIYNNQDRPPGIPERFSGSPDIDFGTTATLTITNVEAGDEATYYCHIWDSRRPTNWVFGGGTTLTVL
Work on B1 yielded an IC80, pseudovirus neutralization [1] of 0.012 µg/mL, an IC50, pseudovirus neutralization [2] of 0.385 µg/mL and an IC80, pseudovirus neutralization [3] of 0.073 µg/mL. The IC80, pseudovirus neutralization [4] was 0.047 µg/mL, the IC50, pseudovirus neutralization [5] was over 50 µg/mL and the IC50, pseudovirus neutralization [6] was 2.25 µg/mL. For the same binder, the IC80, pseudovirus neutralization [7] was 5.05 µg/mL, the IC80, pseudovirus neutralization [8] was 3 µg/mL and the IC80, pseudovirus neutralization [9] was over 50 µg/mL. For the same binder, the IC50, pseudovirus neutralization [10] was 0.003 µg/mL, the IC50, pseudovirus neutralization [11] was 0.003 µg/mL and the IC50, pseudovirus neutralization [12] was 0.002 µg/mL. The IC50, pseudovirus neutralization [13] was 0.006 µg/mL, the IC50, pseudovirus neutralization [14] was 0.002 µg/mL and the IC50, pseudovirus neutralization [15] was 0.005 µg/mL. The IC50, pseudovirus neutralization [16] was 0.005 µg/mL, the IC50, pseudovirus neutralization [17] was 0.014 µg/mL and the IC50, pseudovirus neutralization [18] was over 50 µg/mL. The IC50, pseudovirus neutralization [19] was 0.007 µg/mL, the IC50, pseudovirus neutralization [20] was over 50 µg/mL and the IC50, pseudovirus neutralization [21] was 0.161 µg/mL. For the same binder, the IC50, pseudovirus neutralization [22] was 0.183 µg/mL, the IC50, pseudovirus neutralization [23] was over 50 µg/mL and the IC80, pseudovirus neutralization [24] was 6.35 µg/mL. It also gave an IC50, pseudovirus neutralization [25] of 42.8 µg/mL, an IC50, pseudovirus neutralization [26] of 0.013 µg/mL and an IC80, pseudovirus neutralization [27] of 0.01 µg/mL. It also gave an IC50, pseudovirus neutralization [28] of 0.229 µg/mL, an IC80, pseudovirus neutralization [29] of 0.006 µg/mL and an IC50, pseudovirus neutralization [30] of 5.07 µg/mL. For the same binder, the IC50, pseudovirus neutralization [31] was 0.005 µg/mL, the IC80, pseudovirus neutralization [32] was 0.022 µg/mL and the IC80, pseudovirus neutralization [33] was 0.007 µg/mL. The IC50, pseudovirus neutralization [34] was over 50 µg/mL, the IC50, pseudovirus neutralization [35] was 0.003 µg/mL and the IC50, pseudovirus neutralization [36] was 3.52 µg/mL. For the same binder, the IC50, pseudovirus neutralization [37] was 0.003 µg/mL, the IC80, pseudovirus neutralization [38] was 0.009 µg/mL and the IC80, pseudovirus neutralization [39] was 1.01 µg/mL. It also gave an IC50, pseudovirus neutralization [40] of 0.589 µg/mL, an IC80, pseudovirus neutralization [41] of 0.01 µg/mL and an IC50, pseudovirus neutralization [42] of over 50 µg/mL. For the same binder, the IC50, pseudovirus neutralization [43] was 0.01 µg/mL, the IC80, pseudovirus neutralization [44] was over 50 µg/mL and the IC80, pseudovirus neutralization [45] was 0.006 µg/mL. It also gave an IC50, pseudovirus neutralization [46] of 0.023 µg/mL, an IC50, pseudovirus neutralization [47] of 0.014 µg/mL and an IC80, pseudovirus neutralization [48] of over 50 µg/mL. For the same binder, the IC50, pseudovirus neutralization [49] was 0.002 µg/mL and the IC50, pseudovirus neutralization [50] was 0.004 µg/mL.
